In patent publication US12180286B2, “Anti-peripheral lymph node addressin antibodies and uses thereof” (The Brigham and Women's Hospital, Inc., priority 2019, dated 2024):

B1: MHA112: anti-PNAd monoclonal antibody, mouse IgM, VH SEQ ID NO:2 and VL SEQ ID NO:7 (antibody, V domains shown)
VH: QVQLKESGPGLVAPSQSLSITCTVSGFSLTSYGVDWVRQPPGKGLEWLGVIWGGGSTNYNSALMSRLSISKDNSKSQVFLKMNSLQTDDTAMYYCAKHSKGGYFDVWGTGTTVTVSS
VL: EIVLTQSPAITAASLGQKVTITCSASSSVSYMHWYQQKSGTSPKPWIYEISKLASGVPARFSGSGSGTSYSLTISSMEAEDAAIYYCQQWNYPLITFGAGTKLELK
modifications: mouse IgM constant regions; MHA112 Heavy chain; MHA112 Light chain

Assays:
4T1 breast tumor cells = assay: 4T1 breast tumor growth model; format: in vivo, BALB/c-WT mice; conditions: equal to 160 ng free taxol every two days; n=12
Experimental: Mice were anesthetized with isoflurane and underwent subcutaneous injection with 4T1 breast tumor cells in the mammary glands (1×10^5 cells per mouse). Starting at 9 days post-implantation, free Taxol or MHA112-Taxol were administered every other day intraperitoneally for 24 days. Tumor growth was monitored two times per week by digital caliper.

[1] = test system: 4T1 tumor-draining lymph nodes (TDLNs); assay: Immunostaining of 4T1 tumor-draining lymph nodes (TDLNs); format: in vivo, mice; conditions: 4T1 TDLNs, fluorescence micrographs
Source text: Thus, the effect of the LN delivery of MHA112 in the tumor population in the LN was investigated. The extent of MHA112's ability to restore the overall structure of LN was also investigated. […] 4T1 tumor-draining lymph nodes (TDLNs) were cut by cryo-sectioning and stained with anti-HEV (sc-19602, SCBT), anti-LYVE1 (ab14917, Abcam), anti-Pan-Cytokeratin (C2931, Sigma), anti-collagen I (ab34710, Abcam), anti-collagen IV (ab6586, Abcam), and anti-laminin (ab11575, Abcam). […] The stained tissue sections were visualized using an EVOS™ FL Auto 2 Imaging System. […] The structure changes of TDLNs was also examined.

4T1 tumor cell lines = assay: 4T1 breast tumor liver portal vein metastasis model, survival; format: in vivo, mouse; conditions: 160 ng every other day intraperitoneally for 20 days, starting 4 hours post-implantation
Experimental: To investigate the effect of MHA112-Taxol on tumor metastasis, 4T1 tumor cell lines were gently injected into the portal vein (1×10^4 cells per mouse) of mouse liver. Starting 4 hours post-implantation, 160 ng of free Taxol or MHA112-taxol were administered every other day intraperitoneally for 20 days. Survival was monitored every day.
(§1) Glutaric anhydride (100 mg, Sigma-Aldrich) and taxol (33 mg, LC laboratories) were prepared in a 4 mL vial dried under high vacuum for 24 hours and dissolved in 1 mL of pyridine. The solution was stirred at room temperature under Ar atmosphere for 2 hours. The reaction was quenched by removal of solvent under high vacuum for 2 hours. 2′-Glutaryl taxol was purified by a reversed phase HPLC (Phenomenex Luna 5 μm C18 250×10.0 mm, flow rate 2 mL/min, UV 250 nm detection) with a gradient solvent system (15% to 75% ACN/H2O with 0.1% formic acid for 40 minutes). 2′-glutaryl taxol (0.2 mg) dissolved in DMSO (Thermo Scientific Fisher) was activated with 1-ethyl-3-(3-dimethylaminopropyl)carbodiimide hydrochloride (EDC, 0.4 mg, Sigma-Aldrich) and Sulfo-NHS (N-hydroxysulfosuccinimide) (1.1 mg, Thermo Scientific Fisher) for 15 minutes at room temperature in MES buffer (pH 6.0, Thermo Scientific Fisher) (final solution; ˜1 mL in 10% DMSO). The EDC was quenched by 2-mercaptoethanol (1.4 μL, Sigma-Aldrich) for 10 min. […]

[2] = test system: Panc02 pancreas tumor cells; assay: Panc02 pancreas tumor model, survival; format: in vivo, mice; conditions: 160 ng every other day intraperitoneally for 20 days, starting 4 hours post-implantation
Experimental: Mice were anesthetized with isoflurane, and Panc02 pancreas tumor cells were gently injected in pancreas of mice. Two million cells (2×10^6 cells) were injected per mouse for Panc02 tumor model. Starting 4 hours post-implantation, 160 ng of free Taxol or MHA112-taxol were administered every other day intraperitoneally for 20 days. Survival was monitored every day.
as §1

[3] = test system: high endothelial venules (HEVs) of mice lymph nodes (LNs); assay: Immunofluorescence staining of HEVs in mice lymph node sections; format: binding; conditions: hybridoma supernatant
Source text: (§2) Two of GlcNAc6ST1/2/4 triple knock-out (KO) mice, which lack the peripheral lymph node vascular addressin (PNAd), were immunized with Chinese hamster ovary (CHO) cell lines expressing CD34 decorated with sialyl Lewis^X (sLeX)-type glycans. MHA112 single hybridoma clone was identified by HEV immunofluorescence staining. The supernatant of MHA112 hybridoma culture was collected and used to stain mice lymph nodes (LNs) and human tonsil section.
(§3) Two of GlcNAc6ST1/2/4 triple KO mice, which lack the PNAd, were immunized with CHO cell lines expressing CD34 decorated with sLeX-type glycans. After the 3rd immunization, mice were sacrificed for hybridoma. Around 500 single clones were screened by HEV staining. Monoclonal antibody MHA112 against mice and human HEV was identified.
(§4) Fresh LNs were embedded in tissue-freezing medium. Cryostat sections (8 μm thick) were cut for imaging by fluorescence confocal microscopy. MHA112 was used for tissue staining as primary antibody. Alexa Fluor 488-conjugated anti-mouse IgM was used as secondary antibody. DAPI was used to stain the cell nuclei.

[4] = test system: high endothelial venules (HEVs) of human tonsil; assay: Immunofluorescence staining of HEVs in human tonsil section; format: binding; conditions: hybridoma supernatant
Source text: as §2, §3, §4

T cells homing to LNs = assay: Blocking of labeled T cell homing to LNs (flow cytometry); format: in vivo, C57BL/6 mice; conditions: 200 μg i.p. 2 hours before T cell injection, 19 hours after transfer
Experimental: To test whether MHA112 mAb can block T cells homing to LNs in vivo, T cells were labeled with fluorescein isothiocyanate (FITC) florescence dye and transferred into naïve mice, and their distribution assessed 19 hours later. MHA112 (anti-HEVs) reduced the number of transferred T cells that entered Axillary (Axi), Inguinal (Ing) and Brachial (Bra) LN by over 25% (FIG. 4). […] Labeled T cells that entered spleen were not changed in three groups (FIG. 4).
Spleens were harvested from three C57BL/6 mice. Single cell suspensions were prepared, and cells were positively enriched for T cells with MACS reagents and columns (Miltenyi Biotech, Bergisch Gladbach, Germany) according to the manufacturer's instructions. For injection, T cells were labeled with CellTracker Green (Thermo Fisher) and resuspended in sterile saline, and 5 million T cells were injected in 100 μl each mouse. Blocking antibodies MHA112 and MECA79 were administered intraperitoneally (i.p.) at 200 μg in 200 μl per mouse 2 hours before T cell injection. 19 hours after transfer, mice were euthanized and LNs were processed for flow cytometry.

[5] = test system: CHO cells expressing PNAd (CHO-PNAd); assay: Cell-based ELISA binding affinity
Experimental: To compare the affinity of MHA112 with MECA79, cell-based ELISA was performed. CHO cells expressing PNAd (CHO-PNAd) (2×10^4) were coated onto 96-well plates and incubated overnight at 37° C. After five washes with phosphate buffered saline (PBS), the plates were fixed with 1% paraformaldehyde (PFA) and blocked with 3% bovine serum albumin (BSA). MECA79 and MHA112 were serially diluted from 1 ng/ml to 300 μg/ml. After five washes in PBST, horseradish peroxidase-(HRP-)conjugated goat anti-mouse and anti-rat secondary antibodies were added at a 1:10,000 dilution and incubated for 1 hour at room temperature. Binding was detected with the addition of TMB (3,3′,5,5′-tetramethylbenzidine) substrate, and the reaction was stopped by adding TMB Stop Solution (N600, Thermo Scientific). Absorbance signals were read at 450 nm.

| Molecule | growth of 4T1 mouse breast tumors versus control group treated with PBS (4T1 breast tumor cells) | expansion of HEVs and lymphatics (LYVE1) in TDLNs [1] | median survival time (MST) (4T1 tumor cell lines) [days] | median survival time (MST) [2] [days] | staining of HEVs structure [3] | staining of HEVs structure [4] | reduction of number of transferred T cells that entered Axillary, Inguinal and Brachial LN (T cells homing to LNs) | reduction of number of T cells that entered mesenteric LNs (T cells homing to LNs; of PBS controls) | binding affinity higher than MECA79 [5] [%] | Kd ([5]; fitting curves, absorbance 450 nm) [pM] |
| --- | --- | --- | --- | --- | --- | --- | --- | --- | --- | --- |
| CC(=O)O[C@H]1C(=O)[C@@]2(C)[C@H]([C@H](OC(=O)c3ccccc3)[C@]3(O)C[C@H](OC(=O)[C@H](O)[C@@H](NC(=O)c4ccccc4)c4ccccc4)C(C)=C1C3(C)C)[C@]1(OC(C)=O)CO[C@@H]1C[C@@H]2O [free Taxol, taxol] | significantly slower growth | expanded | 37 | 32 | – | – | – | – | – | – |
| B1 | – | – | – | – | stained | stained | over 25% | around 12% | 30 | 970 |
